From paper PMC6220267, “High‐affinity interactions and signal transduction between Aβ oligomers and TREM2” (EMBO Molecular Medicine, 2018) come the findings set out here.

One assay has as its target T1, Aβ42 oligomers (soluble) (UniProt P05067 672-713).
T1 construct: amyloid‐β 1-42 (Aβ42), cut product of the amyloid precursor protein APP; Oligomeric assembly; also called Aβ oligomers; oligomeric Aβ; source: oligomers prepared as described (Stine et al, 2003)
The assay is described as follows: BLI; optimized assay: Protein A sensors loaded to near-saturation with soluble TREM‐Fc‐V5 proteins in PBS; ligand in serial dilution (five concentrations); dissociation in PBS; 1:1 interaction model. Particulars: both partners purified.

In assay [1] the target is T2, Aβ42 fibrils (fibrillar Aβ42) (UniProt P05067 672-713).
T2 construct: amyloid‐β 1-42 (Aβ42), cut product of the amyloid precursor protein APP; Fibrillar assembly of the peptide; also called fAβ; Aβ fibrils; source: Pinotsi et al, 2016
The assay is described as follows: pull-down; Aβ42 fibril pull-down: conditioned media with 5 mM EDTA incubated with Aβ42 fibrils 1 h at room temperature, fibrils pelleted at 18,000 g, washed with PBS; Western blot with V5 antibody. Particulars: one partner purified. (In general: Immunoblotting shows a protein as a band on a membrane.)

A further assay has as its target T3, Aβ42 monomers (UniProt P05067 672-713).
T3 construct: amyloid‐β 1-42 (Aβ42), cut product of the amyloid precursor protein APP; also called monomeric Aβ; source: monomers prepared as described (Stine et al, 2003)
The assay is described as follows: ELISA; plates coated overnight at 4°C with purified soluble TREM‐Fc proteins in 100 mM NaCO3 pH 11, blocked (Block Ace), incubated with Aβ42 monomers, oligomers or fibrils 1 h at room temperature; Aβ detected with 4G8‐HRP, OD450. Particulars: both partners purified. A general note: In an ELISA, binding on a coated surface is turned into a signal by an enzyme label.

B1: soluble mouse Trem2‐Fc (soluble ectodomain) (Fc fusion, UniProt Q99NH8 19-171, looked up)
chain: LNTTVLQGMAGQSLRVSCTYDALKHWGRRKAWCRQLGEEGPCQRVVSTHGVWLLAFLKKRNGSTVIADDTLAGTVTITLKNLQAGDAGLYQCQSLRGREAEVLQKVLVEVLEDPLDDQDAGDLWVPEESSSFEGAQVEHSTSRNQETSFPPTS
notes: Trem2, mouse, soluble ectodomain; also called sTrem2‐Fc; sTrem2‐FC; source: HEK293T, transiently transfected; conditioned media; purified from conditioned media (anti-human IgG Fc agarose beads)
On to B1, for which the binding result (with Aβ42 oligomers (soluble); in assay [1]; in the assay with Aβ42 monomers) was “binds” throughout.

B2: soluble mouse Treml1‐Fc (soluble ectodomain) (Fc fusion, UniProt Q8K558 21-175, looked up)
chain: DSHPEVLQAPVGSSILVQCHYRLQDVRALKVWCQFLQEGCHPLVTSAVDRRAPGNGRIFLTDLGGGLLQVEMVTLQEEDTGEYGCVVEGAAGPQTLHRVSLLVLPPVPGPREGEEAEDEKETYRIGTGSLLEDPSLDPSASAGPHEFRRRENSIP
notes: Treml1, mouse, soluble ectodomain; also called sTreml1‐Fc; source: HEK293T, transfected, purified from conditioned media (anti-human IgG Fc agarose beads)
For B2, the binding result with Aβ42 oligomers (soluble) is “binds”.

B3: soluble TREML1‐Fc (human, soluble ectodomain) (Fc fusion, UniProt Q86YW5 16-162, looked up)
chain: QGIVGSLPEVLQAPVGSSILVQCHYRLQDVKAQKVWCRFLPEGCQPLVSSAVDRRAPAGRRTFLTDLGGGLLQVEMVTLQEEDAGEYGCMVDGARGPQILHRVSLNILPPEEEEETHKIGSLAENAFSDPAGSANPLEPSQDEKSIP
notes: TREML1, human, soluble ectodomain; also called sTREML1‐Fc; source: HEK293T, transiently transfected; conditioned media; purified from conditioned media (anti-human IgG Fc agarose beads)
For B3, the binding result in the assay with Aβ42 oligomers (soluble) was “binds”.
